# In publication PMC8565331, “The RNA chaperone StpA enables fast RNA refolding by destabilization of mutually exclusive base pairs within competing secondary structure elements”:
# T1: StpA-CTD (Escherichia coli, UniProt P0ACG1 90-134)
# T1 chain: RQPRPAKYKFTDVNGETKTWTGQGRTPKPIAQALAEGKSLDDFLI
# B1: A2-DMA (structured_RNA)
# RNA: GACCGGAAGGUCCGCCUUCC
# modifications: N6-dimethyladenosine at A2
# B2: 3'-HP (structured_RNA)
# RNA: CGGAAGGUCCGCCUUCC
# B3: bistable 20mer RNA (structured_RNA)
# RNA: GACCGGAAGGUCCGCCUUCC
# B4: 5'-HP (structured_RNA)
# RNA: GACCGGAAGGUCC
# B5: G6-m1G (structured_RNA)
# RNA: GACCGGAAGGUCCGCCUUCC
# modifications: N1-methylguanosine at G6
# What was measured:
# [1] = biological target: T1, StpA-CTD; test: ITC; 5 C; n=2.21; 50 mM BisTris, 25 mM NaCl, pH 6.4; ITC at 5 and 25 C (40 uM RNA in cell, StpA-CTD 400/800/920 uM injected); NMR with 10% D2O, titration at 25 C; conditions: protein: recombinant; tags: none (His6-SUMOstar removed by SUMO protease); chain copies: 2; hairpin, locked 3'-fold
# [2] = biological target: T1, StpA-CTD; test: ITC; 25 C; n=2.33; 50 mM BisTris, 25 mM NaCl, pH 6.4; ITC at 5 and 25 C (40 uM RNA in cell, StpA-CTD 400/800/920 uM injected); NMR with 10% D2O, titration at 25 C; conditions: protein: recombinant; tags: none (His6-SUMOstar removed by SUMO protease); chain copies: 2; hairpin, locked 3'-fold
# [3] = biological target: T1, StpA-CTD; test: ITC; 5 C; n=1.78; 50 mM BisTris, 25 mM NaCl, pH 6.4; ITC at 5 and 25 C (40 uM RNA in cell, StpA-CTD 400/800/920 uM injected); NMR with 10% D2O, titration at 25 C; conditions: protein: recombinant; tags: none (His6-SUMOstar removed by SUMO protease); chain copies: 2; hairpin (3'-fold), 1 nt 5' overhang
# [4] = biological target: T1, StpA-CTD; test: ITC; 25 C; n=1.74; 50 mM BisTris, 25 mM NaCl, pH 6.4; ITC at 5 and 25 C (40 uM RNA in cell, StpA-CTD 400/800/920 uM injected); NMR with 10% D2O, titration at 25 C; conditions: protein: recombinant; tags: none (His6-SUMOstar removed by SUMO protease); chain copies: 2; hairpin (3'-fold), 1 nt 5' overhang
# [5] = biological target: T1, StpA-CTD; test: ITC; 5 C; n=1.84; 50 mM BisTris, 25 mM NaCl, pH 6.4; ITC at 5 and 25 C (40 uM RNA in cell, StpA-CTD 400/800/920 uM injected); NMR with 10% D2O, titration at 25 C; conditions: protein: recombinant; tags: none (His6-SUMOstar removed by SUMO protease); chain copies: 2
# [6] = biological target: T1, StpA-CTD; test: ITC; 25 C; n=1.93; 50 mM BisTris, 25 mM NaCl, pH 6.4; ITC at 5 and 25 C (40 uM RNA in cell, StpA-CTD 400/800/920 uM injected); NMR with 10% D2O, titration at 25 C; conditions: protein: recombinant; tags: none (His6-SUMOstar removed by SUMO protease); chain copies: 2
# [7] = biological target: T1, StpA-CTD; test: ITC; 5 C; n=1.74; 50 mM BisTris, 25 mM NaCl, pH 6.4; ITC at 5 and 25 C (40 uM RNA in cell, StpA-CTD 400/800/920 uM injected); NMR with 10% D2O, titration at 25 C; conditions: protein: recombinant; tags: none (His6-SUMOstar removed by SUMO protease); chain copies: 2; hairpin (5'-fold)
# [8] = biological target: T1, StpA-CTD; test: ITC; 25 C; n=1.69; 50 mM BisTris, 25 mM NaCl, pH 6.4; ITC at 5 and 25 C (40 uM RNA in cell, StpA-CTD 400/800/920 uM injected); NMR with 10% D2O, titration at 25 C; conditions: protein: recombinant; tags: none (His6-SUMOstar removed by SUMO protease); chain copies: 2; hairpin (5'-fold)
# [9] = biological target: T1, StpA-CTD; test: ITC; 5 C; n=1.93; 50 mM BisTris, 25 mM NaCl, pH 6.4; ITC at 5 and 25 C (40 uM RNA in cell, StpA-CTD 400/800/920 uM injected); NMR with 10% D2O, titration at 25 C; conditions: protein: recombinant; tags: none (His6-SUMOstar removed by SUMO protease); chain copies: 2; hairpin, locked 5'-fold
# [10] = biological target: T1, StpA-CTD; test: ITC; 25 C; n=1.80; 50 mM BisTris, 25 mM NaCl, pH 6.4; ITC at 5 and 25 C (40 uM RNA in cell, StpA-CTD 400/800/920 uM injected); NMR with 10% D2O, titration at 25 C; conditions: protein: recombinant; tags: none (His6-SUMOstar removed by SUMO protease); chain copies: 2; hairpin, locked 5'-fold
binder,measurement,setting,value
B1,Kd,[1],8.31 ± 0.8 µM
same,Kd,[2],13.6 ± 1.6 µM
B2,Kd,[3],11.3 ± 1.4 µM
same,Kd,[4],16.1 ± 2.6 µM
B3,Kd,[5],9.4 ± 1.3 µM
same,Kd,[6],12.3 ± 1.7 µM
B4,Kd,[7],13.3 ± 3.7 µM
same,Kd,[8],24.7 ± 0.6 µM
B5,Kd,[9],16.3 ± 0.7 µM
same,Kd,[10],17.5 ± 1.3 µM
